Experimental data: IntAct's records for PubMed 21685874

B1: SAGA-associated factor 29 (Homo sapiens), Q96ES7 (parent)
chain: MALVSADSRIAELLTELHQLIKQTQEERSRSEHNLVNIQKTHERMQTENKISPYYRTKLRGLYTTAKADAEAECNILRKALDKIAEIKSLLEERRIAAKIAGLYNDSEPPRKTMRRGVLMTLLQQSAMTLPLWIGKPGDKPPPLCGAIPASGDYVARPGDKVAARVKAVDGDEQWILAEVVSYSHATNKYEVDDIDEEGKERHTLSRRRVIPLPQWKANPETDPEALFQKEQLVLALYPQTTCFYRALIHAPPQRPQDDYSVLFEDTSYADGYSPPLNVAQRYVVACKEPKKK

Variants of: B1
Details: with h31_human H3C1, P68431

Variant	effect of a mutation on the interaction
D196A	decreasing interaction

Variants of: B1
Details: with h31_human H3C1, P68431
Remark: another data set of the same source

Variant	effect of a mutation on the interaction
D196A	disrupting interaction

Variants of: B1
Details: with h31_human H3C1, P68431
Remark: another data set of the same source

Variant	effect of a mutation on the interaction
D196R	disrupting interaction

Variants of: B1
Details: with h31_human H3C1, P68431
Remark: another data set of the same source

Variant	effect of a mutation on the interaction
Y245A	disrupting interaction

Variants of: B1
Details: with h31_human H3C1, P68431
Remark: another data set of the same source

Variant	effect of a mutation on the interaction
D194A	disrupting interaction

Variants of: B1
Details: with h31_human H3C1, P68431
Remark: another data set of the same source

Variant	effect of a mutation on the interaction
D266A	decreasing interaction

Variants of: B1
Details: with h31_human H3C1, P68431
Remark: another data set of the same source

Variant	effect of a mutation on the interaction
Q240A	decreasing interaction

Variants of: B1
Details: with h31_human H3C1, P68431
Remark: another data set of the same source

Variant	effect of a mutation on the interaction
F264A	decreasing interaction

Variants of: B1
Details: with h31_human H3C1, P68431
Remark: another data set of the same source

Variant	effect of a mutation on the interaction
T242A	decreasing interaction

Variants of: B1
Details: with h31_human H3C1, P68431
Remark: another data set of the same source

Variant	effect of a mutation on the interaction
Y238A	decreasing interaction
